T1: human Myl9-His (human, UniProt P24844 2-172, limits assumed)
T1 construct: Made in E. coli; the GST tag was cleaved with PreScission Protease
T1 sequence: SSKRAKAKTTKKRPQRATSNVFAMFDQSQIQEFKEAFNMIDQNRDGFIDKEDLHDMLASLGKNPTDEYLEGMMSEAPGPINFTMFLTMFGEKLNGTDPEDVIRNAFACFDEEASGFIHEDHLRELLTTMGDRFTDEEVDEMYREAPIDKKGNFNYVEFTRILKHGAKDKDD

T2: human Myl12a-His (human, UniProt P19105 1-171)
T2 construct: Made in E. coli; GST tag cleaved with PreScission Protease; DTT-treated monomer
T2 sequence: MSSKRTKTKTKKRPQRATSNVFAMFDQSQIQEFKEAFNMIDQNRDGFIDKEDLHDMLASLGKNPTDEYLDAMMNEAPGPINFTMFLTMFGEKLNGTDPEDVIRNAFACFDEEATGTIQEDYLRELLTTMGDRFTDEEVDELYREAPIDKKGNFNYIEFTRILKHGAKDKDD

T3: human Myl12b-His (human, UniProt O14950 1-172)
T3 construct: Made in E. coli; GST tag cleaved with PreScission Protease; DTT-treated monomer
T3 sequence: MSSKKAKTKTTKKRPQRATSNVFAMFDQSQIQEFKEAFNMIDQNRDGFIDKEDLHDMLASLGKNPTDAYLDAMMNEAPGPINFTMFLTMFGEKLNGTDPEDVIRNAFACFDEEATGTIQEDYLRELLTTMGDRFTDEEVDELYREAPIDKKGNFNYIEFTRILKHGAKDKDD

T4: mouse Myl9-His (mouse, UniProt Q9CQ19 2-172, limits assumed)
T4 construct: Made in E. coli; the GST tag was cleaved with PreScission Protease and leftover vector residues are not described
T4 sequence: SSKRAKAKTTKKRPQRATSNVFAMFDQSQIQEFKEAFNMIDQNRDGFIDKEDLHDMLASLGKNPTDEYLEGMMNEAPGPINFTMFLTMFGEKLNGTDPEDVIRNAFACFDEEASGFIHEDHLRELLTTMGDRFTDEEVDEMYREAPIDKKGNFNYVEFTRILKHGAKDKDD

T5: mouse Myl12a-His (mouse, UniProt Q3THE2 1-172 at identity 1.00), limits assumed)
T5 construct: Made in E. coli; GST tag cleaved with PreScission Protease; DTT-treated monomer
T5 chain: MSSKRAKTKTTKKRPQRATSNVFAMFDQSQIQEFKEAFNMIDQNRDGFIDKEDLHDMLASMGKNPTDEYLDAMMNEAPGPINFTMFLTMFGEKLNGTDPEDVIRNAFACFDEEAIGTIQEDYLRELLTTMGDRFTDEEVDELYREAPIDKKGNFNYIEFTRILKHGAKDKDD

T6: mouse Myl12b-His (mouse, UniProt Q3THE2 1-172, limits assumed)
T6 construct: Made in E. coli; GST tag cleaved with PreScission Protease; DTT-treated monomer
T6 sequence: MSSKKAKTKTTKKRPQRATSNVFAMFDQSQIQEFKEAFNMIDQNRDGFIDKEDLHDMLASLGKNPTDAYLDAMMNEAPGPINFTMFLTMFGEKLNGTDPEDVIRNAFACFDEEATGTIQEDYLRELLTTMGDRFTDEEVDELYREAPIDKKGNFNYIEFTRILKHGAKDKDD

T7: mouse/human Myl9 peptide-BSA (mouse and human (common sequence), added C-terminal Cys coupled to maleimide-activated BSA)
T7 construct: Synthetic peptide conjugated to bovine serum albumin
T7 peptide: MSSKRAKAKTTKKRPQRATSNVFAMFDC


Tests used:
human Myl9-His [1] = target: T1, human Myl9-His; assay: ELISA, human Myl9-His coated, anti-Flag-HRP
Procedure: (§1) Evaluation of binding between human Myl9, Myl12a and Myl12b and human CD69 extracellular region protein was carried out by ELISA. Human Myl3-His, human Myl9-His, human Myl12a-His and human Myl12b-His prepared in Example 5 were coated onto the wells of a 96-well plate (Nunc), respectively. After an overnight incubation at 4° C., the wells were blocked at room temperature for one hour with 1× Block Ace (DS Pharma Biomedical Co., Ltd.). After washing three times with 0.02% Tween 20/PBS, six serial dilutions by three folds of 3× Flag-human CD69 EC protein were made from a concentration of 10 μg/mL by 50 mM NaOAc (pH 5.5)/150 mM NaCl/0.02% Tween 20 and added to the wells. After incubation at room temperature for one and half hour and washing three times with 50 mM NaOAc (pH 5.5)/150 mM NaCl/0.02% Tween 20, horseradish peroxidase-labeled anti-Flag (M2) antibody (SIGMA) was added, and this was incubated at room temperature for one hour. After washing 5 times, TMBZ (3,3′,5,5′-tetramethylbenzidine) solution was added to the wells, and this was incubated for 5-20 minutes at room temperature. An equal amount of reaction quenching solution (2N H₂SO₄) was added to the wells, and absorbance at 450 nm was read with a microplate reader (Thermo Scientific).

human Myl12a-His [2] = target: T2, human Myl12a-His; assay: ELISA, human Myl12a-His coated, anti-Flag-HRP
Procedure: as §1

human Myl12b-His [3] = target: T3, human Myl12b-His; assay: ELISA, human Myl12b-His coated, anti-Flag-HRP
Procedure: as §1

human Myl3-His [4] = target: T8, human Myl3-His (human, UniProt P08590 2-195, limits assumed); assay: ELISA, human Myl3-His coated, pH 5.5 buffer, anti-Flag-HRP
T8 construct: Made in E. coli; the GST tag was cleaved with PreScission Protease
T8 sequence (P08590 2-195 limits assumed): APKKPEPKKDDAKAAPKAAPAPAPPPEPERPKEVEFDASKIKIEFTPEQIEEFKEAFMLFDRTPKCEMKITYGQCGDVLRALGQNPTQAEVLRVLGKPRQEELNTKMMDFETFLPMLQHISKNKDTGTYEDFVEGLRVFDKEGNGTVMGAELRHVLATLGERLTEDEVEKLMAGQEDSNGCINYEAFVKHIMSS
Procedure: as §1

human Myl3-His [5] = target: T8, human Myl3-His; assay: ELISA, human Myl3-His coated, anti-mouse IgG-HRP
Procedure: (§2) The binding ability against mouse/human Myl9 was evaluated following the steps below by ELISA. Mouse Myl3-His, mouse Myl9-His, human Myl3-His, and human Myl9-His were coated onto the wells of a 96-well plate (Nunc). After an overnight incubation at 4° C., the wells were blocked at room temperature for one hour with 1× Block Ace (DS Pharma Biomedical Co., Ltd.). After washing three times with 0.02% Tween 20/PBS, ten serial dilutions by four folds of Antibody A were made from a concentration of 10 μg/mL and added to the wells. After incubation at room temperature for one hour and washing three times, horseradish peroxidase-labeled anti-mouse IgG antibody (Jackson ImmunoResearch Laboratories) was added, and this was incubated at […] temperature for one hour. After washing 5 times, TMBZ (3,3′,5,5′-tetramethylbenzidine) solution was added to the wells, and this was incubated for 5-20 minutes at room temperature. An equal amount of reaction quenching solution (2N H₂SO₄) was added to the wells, and absorbance at 450 nm was read with a microplate reader (PerkinElmer).

human Myl9-His [6] = target: T1, human Myl9-His; assay: ELISA, human Myl9-His coated, anti-mouse IgG-HRP
Procedure: as §2

mouse Myl3-His = target: T9, mouse Myl3-His (mouse, UniProt P09542 2-204, limits assumed); assay: ELISA, mouse Myl3-His coated, anti-mouse IgG-HRP
T9 construct: Made in E. coli; the GST tag was cleaved with PreScission Protease
T9 sequence (P09542 2-204 limits assumed): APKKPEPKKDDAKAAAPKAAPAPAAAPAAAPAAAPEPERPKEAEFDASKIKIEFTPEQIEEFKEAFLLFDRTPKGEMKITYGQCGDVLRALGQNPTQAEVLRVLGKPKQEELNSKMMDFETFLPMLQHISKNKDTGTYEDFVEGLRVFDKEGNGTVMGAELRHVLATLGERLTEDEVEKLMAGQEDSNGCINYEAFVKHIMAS
Procedure: as §2

mouse Myl9-His = target: T4, mouse Myl9-His; assay: ELISA, mouse Myl9-His coated, anti-mouse IgG-HRP
Procedure: as §2

human Myl12a-His [7] = target: T2, human Myl12a-His; assay: ELISA, human Myl12a-His coated, anti-mouse IgG-HRP
Procedure: (§3) The binding ability of Antibody A against mouse/human Myl12a and Myl12b was evaluated following the steps below by ELISA. Mouse Myl3-His, mouse Myl9-His, mouse Myl12a-His, mouse Myl12b-His, human Myl3-His, human Myl9-His, human Myl12a-His, and human Myl12b-His were coated onto the wells of a 96-well plate (Nunc). After an overnight incubation at 4° C., the wells were blocked at room temperature for one hour with 1× Block Ace (DS Pharma Biomedical Co., Ltd.). After washing three times with 0.02% Tween 20/PBS, eleven serial dilutions by four folds of Antibody A were made from a concentration of 10 μg/mL and added to the wells. After incubation at room temperature for one hour and washing three times, horseradish peroxidase-labeled anti-mouse IgG antibody (Jackson ImmunoResearch Laboratories) was added, and this was incubated at room temperature for one hour. After washing 5 times, TMBZ (3,3′,5,5′-tetramethylbenzidine) solution was added to the wells, and this was incubated for 5-20 minutes at room temperature. An equal amount of reaction quenching solution (2N H₂SO₄) was added to the wells, and absorbance at […] was read with a microplate reader (Thermo Scientific).

human Myl12b-His [8] = target: T3, human Myl12b-His; assay: ELISA, human Myl12b-His coated, anti-mouse IgG-HRP
Procedure: as §3

mouse Myl12a-His = target: T5, mouse Myl12a-His; assay: ELISA, mouse Myl12a-His coated, anti-mouse IgG-HRP
Procedure: as §3

mouse Myl12b-His = target: T6, mouse Myl12b-His; assay: ELISA, mouse Myl12b-His coated, anti-mouse IgG-HRP
Procedure: as §3

[9] = target: T7, mouse/human Myl9 peptide-BSA; assay: ELISA, mouse/human Myl9 peptide-BSA coated, hybridoma supernatant
Procedure: ELISA employing mouse/human Myl9 peptide-BSA was carried out according to the following steps. Mouse/human Myl9 peptide-BSA was coated onto the wells of a 96-well plate (Num). After an overnight incubation at 4° C., the wells were blocked at room temperature for one hour with 1× Block Ace (DS Pharma Biomedical Co., Ltd.). After washing three times with 0.02% Tween 20/PBS, the culture supernatant of said fused cells was added to the wells. After incubation at room temperature for one hour and washing three times, horseradish peroxidase-labeled anti-mouse IgG antibody (Jackson ImmunoResearch Laboratories) was added, and this was incubated at room temperature for one hour. After washing 5 times, TMBZ (3,3′,5,5′-tetramethylbenzidine) solution was added to the wells, and this was incubated for 5-20 minutes at room temperature. An equal amount of reaction quenching solution (2N H₂SO₄) was added to the wells, and absorbance at 450 nm was read with a microplate reader (PerkinElmer).

Binder	binding result (human Myl9-His [1])	binding result (human Myl12a-His [2])	binding result (human Myl12b-His [3])	binding result (human Myl3-His [4])	binding result (human Myl3-His [5])	binding result (human Myl9-His [6])	binding result (mouse Myl3-His)	binding result (mouse Myl9-His)	binding result (human Myl12a-His [7])	binding result (human Myl12b-His [8])	binding result (mouse Myl12a-His)	binding result (mouse Myl12b-His)	binding result [9]
3× Flag-human CD69 EC protein (receptor, not shown: small tags and cut ends, Made in Expi293F cells and purified on Anti-Flag M2 gel; The dimerized protein was collected by Superdex200 or Superdex75; also called human CD69 extracellular region protein; extracellular region of human CD69) GQYNCPGQYTFSMPSDSHVSSCSEDWVGYQRKCYFISTVKRSWTSAQNACSEHGATLAVIDSEKDMNFLKRYAGREEHWVGLKKEPGHPWKWSNGKEFNNWFNVTGSDKCVFLKNTEVSSMECEKNLYWICNKPYK	binds	binds	binds	no binding (tested: 10 µg/mL)	–	–	–	–	–	–	–	–	–
mouse anti-mouse/human Myl9 monoclonal antibody (Antibody A) (antibody, V domains shown, Hybridoma antibody purified with Protein A; isotype printed as 'IgG2e, kappa'; also called mAb A; anti-mouse/human Myl9 antibody) VH: QVQLQQSGAEVVRPGASVTLSCKASGYTFTDYEMHWVKQTPVHGLEWIGAIDPETGGTAYNQKFKGKAILTADKSSNTAYMELRSLTSEDSAVYYCTDYDYDGFAYWGQGTLVTVSA VL: DVVMTQTPLSLPVSLGDQASISCRSSQSLVHSNGNTYLHWYLQKPGRSPKLLISKVSNRFSGVPDRFSGSGSGTDFTLKITRVEAEDLGVYFCSQNTHVPPLTFGAGTKLELK	–	–	–	–	no binding (tested: 10 µg/mL)	binds	no binding (tested: 10 µg/mL)	binds	binds	binds	binds	binds	binds

From patent publication US20190002588A1 (NATIONAL UNIVERSITY CORPORATION CHIBA UNIVERSITY, published 2019)
